From the supplement of paper PMC6757056
± gives the standard deviation of the averaged measurements.

B1: library; a variant is named by its letters at N, in order (parent)
chain: GCUGUCACCGGUGCUUGGUACGUUAUAUUCAGCCGGUCUGAUGAGUCUNNNNNNAGACGAAACAGC

What was measured:
(6R,S)-folinic acid [1] = variants of: B1; assay: normalized RNA/DNA level without ligand (relative to sTRSVctl = 100) (log10 (% of sTRSVctl)); HEK293T overexpressing SLC46A1; higher = less ribozyme self-cleavage, higher mRNA level; settings: without (6R,S)-folinic acid; ligand present: no
In short: (§1)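 For each 6-well well, 4 µg of library plasmid encoding mCherry-linked ribozyme switches, or eGFP-linked ones in some ligand experiments, was transfected into HEK293T. Any ligand was added 1 h before transfection, and RNA was extracted with EDTA 72 h after it, then reverse-transcribed, amplified, barcoded and sequenced. RNA level was obtained by dividing RNA reads by DNA reads, normalizing to a spiked-in non-cleaving sequence or to the top sequences, then scaling and log-transforming. The top set was 25 sequences, scaling was ×100 with log10, and ≥100 DNA reads were required.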

(6R,S)-folinic acid [2] = variants of: B1; assay: normalized RNA/DNA level with ligand (relative to sTRSVctl = 100) (log10 (% of sTRSVctl)); HEK293T overexpressing SLC46A1; ligand concentration (+) RNA-Seq: 6 mM; higher = less ribozyme self-cleavage, higher mRNA level; settings: with (6R,S)-folinic acid; ligand present: yes
In short: as §1

| Variant | normalized RNA/DNA level without ligand (log10) ((6R,S)-folinic acid [1]) | normalized RNA/DNA level with ligand (log10) ((6R,S)-folinic acid [2]) |
| --- | --- | --- |
| ACCUCC | 2.08 ± 0.0086 | 2.01 ± 0.028 |
| ACCUCG | 2.028 ± 0.0069 | 2.074 ± 0.0045 |
| UCCUCU | 2.054 ± 0.0029 | 2.04 ± 0.024 |
| UCCUCC | 2.089 ± 0.016 | 2.02 ± 0.046 |
| UCCUCA | 2.046 ± 0.013 | 2.07 ± 0.034 |
| UCCUCG | 1.9194 ± 0.00071 | 2 ± 0.029 |
| UCGAUC | 2.06 ± 0.025 | 2.03 ± 0.026 |
| UCGAUU | 2.02 ± 0.03 | 2.04 ± 0.053 |
| CCGCCC | 2.07 ± 0.025 | 2.04 ± 0.073 |
| CCGCCG | 2.06 ± 0.024 | 2.08 ± 0.03 |
| CCGCCA | 2.0675 ± 0.0011 | 2.04 ± 0.035 |
| CCGCCU | 2.087 ± 0.0066 | 2.08 ± 0.03 |
| GCGGCC | 2.072 ± 0.011 | 2.077 ± 0.02 |
| GCGGCG | 2.07 ± 0.023 | 2.1 ± 0.061 |
| GCGGCA | 2.071 ± 0.0038 | 2.07 ± 0.048 |
| GCGGCU | 2.0832 ± 0.0008 | 2.05 ± 0.031 |
| ACGGCU | 2.048 ± 0.014 | 2.04 ± 0.044 |
| ACGGCC | 2.117 ± 0.009 | 2.06 ± 0.056 |
| ACGGCG | 2.015 ± 0.0037 | 2.0489 ± 0.00014 |
| CCGAGA | 1.988 ± 0.01 | 2.011 ± 0.0034 |
| CCGAGU | 2.029 ± 0.014 | 2.03 ± 0.032 |
| CCGAGG | 2.011 ± 0.006 | 2.01 ± 0.028 |
| GCGUAU | 2.03 ± 0.026 | 2.06 ± 0.022 |
| ACGGAG | 1.839 ± 0.0062 | 2.029 ± 0.014 |

| Variant | normalized RNA/DNA level without ligand (log10) ((6R,S)-folinic acid [1]) | normalized RNA/DNA level with ligand (log10) ((6R,S)-folinic acid [2]) |
| --- | --- | --- |
| ACGGAA | 1.965 ± 0.0049 | 2.024 ± 0.0076 |
| ACGGAC | 2.018 ± 0.015 | 2.01 ± 0.03 |
| GCGACU | 2.051 ± 0.0076 | 2.06 ± 0.04 |
| GCGACA | 2.024 ± 0.015 | 2.05 ± 0.03 |
| GCGACG | 1.989 ± 0.017 | 2.02 ± 0.045 |
| GCGACC | 2.029 ± 0.0059 | 2.07 ± 0.037 |
| UCGUCU | 2.02 ± 0.035 | 2.04 ± 0.09 |
| UCGUCC | 2.064 ± 0.0091 | 2.0551 ± 0.00048 |
| UCGUCA | 2.045 ± 0.013 | 2.03 ± 0.045 |
| UCGUGC | 2.074 ± 0.015 | 2.055 ± 0.0071 |
| UCGUGA | 1.955 ± 0.014 | 2.009 ± 0.0081 |
| GCCUGG | 2.001 ± 0.011 | 2.03 ± 0.034 |
| GCCUGA | 2.036 ± 0.0063 | 2.07 ± 0.028 |
| GCCUGC | 2.052 ± 0.01 | 2.046 ± 0.013 |
| GCCUGU | 2.057 ± 0.0027 | 2.06 ± 0.038 |
| CCGUCG | 2.02 ± 0.034 | 2.021 ± 0.015 |
| CCGUCC | 2.06 ± 0.021 | 2.06 ± 0.039 |
| CCGUCA | 2.04 ± 0.031 | 2.05 ± 0.038 |
| CCGUCU | 2.04 ± 0.0053 | 2.05 ± 0.061 |
| GCGUCG | 2.042 ± 0.0035 | 2.07 ± 0.035 |
| GCGUCA | 2.06 ± 0.025 | 2.08 ± 0.031 |
| GCGUCU | 2.064 ± 0.0062 | 2.07 ± 0.034 |
| GCGUCC | 2.01 ± 0.0034 | 1.997 ± 0.0077 |
| UCGAAA | 1.927 ± 0.0063 | 1.979 ± 0.0054 |

| Variant | normalized RNA/DNA level without ligand (log10) ((6R,S)-folinic acid [1]) | normalized RNA/DNA level with ligand (log10) ((6R,S)-folinic acid [2]) |
| --- | --- | --- |
| UCGAAC | 2.027 ± 0.01 | 2.006 ± 0.0085 |
| UCGCUC | 2.04 ± 0.028 | 2.04 ± 0.059 |
| UCGCUG | 2.01 ± 0.021 | 2.06 ± 0.037 |
| UCGCUU | 2.033 ± 0.019 | 2.01 ± 0.081 |
| UCGCUA | 2.021 ± 0.015 | 2.07 ± 0.035 |
| UCCUAU | 1.9805 ± 0.00094 | 2.03 ± 0.034 |
| UCCUAG | 1.849 ± 0.004 | 2.009 ± 0.0087 |
| CCGGGG | 1.985 ± 0.01 | 2.01 ± 0.049 |
| CCGGGC | 2.102 ± 0.01 | 2.073 ± 0.0025 |
| CCGGGU | 2.07 ± 0.036 | 2.05 ± 0.04 |
| CCGGGA | 2.039 ± 0.0033 | 2.02 ± 0.054 |
| ACGGUC | 2.088 ± 0.0078 | 2.06 ± 0.036 |
| ACGGUA | 1.9058 ± 0.0011 | 1.95 ± 0.029 |
| ACGGUG | 1.924 ± 0.0096 | 2.003 ± 0.013 |
| CCGCAG | 1.97 ± 0.004 | 1.99 ± 0.066 |
| CCGCAU | 2 ± 0.0024 | 2.017 ± 0.018 |
| CCGCAC | 1.997 ± 0.0034 | 1.99 ± 0.029 |
| CCGCAA | 1.986 ± 0.018 | 2 ± 0.042 |
| GCGUGC | 2.043 ± 0.019 | 2.03 ± 0.038 |
| GCGUGA | 1.999 ± 0.015 | 2.03 ± 0.038 |
| GCGGGC | 1.95 ± 0.045 | 1.959 ± 0.017 |
| GCGGGU | 2.05 ± 0.045 | 2.017 ± 0.012 |
| GCGGGG | 2.054 ± 0.0092 | 2.055 ± 0.017 |
| GCGGGA | 2.041 ± 0.0095 | 2.06 ± 0.023 |

| Variant | normalized RNA/DNA level without ligand (log10) ((6R,S)-folinic acid [1]) | normalized RNA/DNA level with ligand (log10) ((6R,S)-folinic acid [2]) |
| --- | --- | --- |
| CCGCGC | 2.067 ± 0.012 | 2.05 ± 0.068 |
| CCGCGG | 2.031 ± 0.0025 | 2.0168 ± 0.0019 |
| CCGCGU | 2.05 ± 0.026 | 2.054 ± 0.015 |
| CCGCGA | 2.06 ± 0.024 | 2.06 ± 0.034 |
| CCCUAU | 2.0351 ± 0.0014 | 2.05 ± 0.038 |
| UCCUUA | 2.015 ± 0.013 | 2.05 ± 0.0049 |
| UCCUUU | 2.07 ± 0.021 | 2.08 ± 0.032 |
| UCCUUC | 2.084 ± 0.002 | 2.05 ± 0.035 |
| CCGGAG | 1.931 ± 0.0037 | 2.024 ± 0.011 |
| CCGGAC | 2.05 ± 0.0016 | 2.042 ± 0.016 |
| CCGGAU | 2.017 ± 0.0056 | 2.05 ± 0.059 |
| CCGGAA | 2.005 ± 0.0036 | 2.01 ± 0.052 |
| UCGUAU | 1.97 ± 0.029 | 2 ± 0.07 |
| UCGUAG | 1.8378 ± 0.0006 | 2 ± 0.052 |
| UCGCCC | 2.05 ± 0.039 | 2.04 ± 0.033 |
| UCGCCU | 2.08 ± 0.043 | 2.082 ± 0.016 |
| UCGCCA | 2.027 ± 0.0078 | 2.03 ± 0.023 |
| UCGCCG | 2.016 ± 0.0047 | 2.05 ± 0.032 |
| ACGCAA | 1.988 ± 0.011 | 2.01 ± 0.031 |
| ACGCAG | 1.934 ± 0.018 | 2.01 ± 0.027 |
| ACGCAU | 1.987 ± 0.012 | 2.01 ± 0.014 |
| ACGCAC | 2.024 ± 0.016 | 2.03 ± 0.027 |
| UCGGUA | 1.93 ± 0.029 | 1.985 ± 0.015 |
| UCGGUC | 2.09 ± 0.025 | 2.06 ± 0.051 |

| Variant | normalized RNA/DNA level without ligand (log10) ((6R,S)-folinic acid [1]) | normalized RNA/DNA level with ligand (log10) ((6R,S)-folinic acid [2]) |
| --- | --- | --- |
| GCGCGU | 2.055 ± 0.011 | 2.04 ± 0.056 |
| GCGCGA | 2.047 ± 0.011 | 2.052 ± 0.018 |
| GCGCGC | 2.055 ± 0.0073 | 2.001 ± 0.011 |
| GCGCGG | 2.064 ± 0.0074 | 2.03 ± 0.031 |
| ACGCCC | 2.051 ± 0.0035 | 2.03 ± 0.059 |
| ACGCCG | 2.0192 ± 0.00023 | 2.029 ± 0.013 |
| ACGCCA | 2.037 ± 0.012 | 2.02 ± 0.035 |
| ACGAAU | 1.95 ± 0.021 | 2 ± 0.035 |
| ACGAAC | 2.02 ± 0.021 | 2.03 ± 0.044 |
| CCGAAA | 2.0005 ± 0.0006 | 2 ± 0.016 |
| CCGAAU | 2.002 ± 0.013 | 2.019 ± 0.018 |
| CCGAAC | 2.035 ± 0.0081 | 2.02 ± 0.049 |
| UCCUGA | 2.025 ± 0.0055 | 2.045 ± 0.018 |
| UCCUGU | 1.999 ± 0.018 | 2.05 ± 0.043 |
| UCCUGG | 1.91 ± 0.023 | 2.04 ± 0.023 |
| UCCUGC | 2.057 ± 0.01 | 2.077 ± 0.014 |
| GCGCCU | 2.1 ± 0.023 | 2.09 ± 0.047 |
| GCGCCG | 2.059 ± 0.0092 | 2.046 ± 0.0097 |
| GCGCCA | 2.08 ± 0.023 | 2.03 ± 0.03 |
| GCGCCC | 2.07 ± 0.023 | 2.04 ± 0.036 |
